Data taken from patent US20030152952.

These sequences were tested on N.BstNBI nicking endonuclease (assay: cleavage_in_vitro). Conditions: duplex 2; repeat 9a 21.3.

“CCTACGACTGGAACAATAAAACCTACGACTGGA / TCCAGTCGTAGGTGAGTCTGTTCCAGTCGTAGG [Duplex 2/9a T-1/B-2 5 mismatches]” was tested, and the activity (relative mass units) was 18.5.

Same assay, conditions: duplex 7; repeat 8a 23.4

“CCTACGACTGGAACAGTAACACCTACGACTGGA / TCCAGTCGTAGGTGAGTCTGTTCCAGTCGTAGG [Duplex 7/8a T-1/B-7 3 mismatches]” showed an activity (relative mass units) of 21.2.

Same assay, conditions: duplex 9f; 9k printed with same T strand gave 22.6

“CCTACGACTGGAACAATAAAACCTACGACTGGA / TCGTAGGTGAGTCTGTTCCAGTCGTAGG [Duplex 9f/9k T-1f/B-2]” was tested, and the activity (relative mass units) was 15.9.

Same assay, conditions: duplex 9g; 9l printed with same strands gave 22.5

Sequence “CCTACGACTGGAACAATAAAACCTACGACTGGA / CGTAGGTGAGTCTGTTCCAGTCGTAGG [Duplex 9g/9l T-1g/B-2]” has an activity (relative mass units) of 28.3.

Same assay, conditions: nicking coupled to Vent exo- extension, LC/MS of released fragment, Mg2+, trehalose, 60 C 1 h

For “CCTACGACTGGAACAGACTCACCTACGACTGGA (double strand) [Duplex 1 T-1/B-1 perfect]”, the activity (relative mass units) was 121.

Same assay, conditions: same conditions

Going from “CCTACGACTGGAACAATAAAACCTACGACTGGA / AGGTGAGTCTGTTCCAGTCGTAGG [Duplex 9j T-1j/B-2]” to “CCTACGACTGGAACAATAAAACCTACGACTGGA / AGTCGTAGGTGAGTCTGTTCCAGTCGTAGG [Duplex 9d T-1d/B-2]”, the activity (relative mass units) falls from 21.4 to 15.3.

Compared with “CCTACGACTGGAACAATAAAACCTACGACTGGA / CAGTCGTAGGTGAGTCTGTTCCAGTCGTAGG [Duplex 9c T-1c/B-2]”, “CCTACGACTGGAACAATAAAACCTACGACTGGA / CCAGTCGTAGGTGAGTCTGTTCCAGTCGTAGG [Duplex 9b T-1b/B-2]” is lower in activity (relative mass units): 19.2 for the first, 17.8 for the second.

First: CCTACGACTGGAACAATAAAACCTACGACTGGA / GAGTCTGTTCCAGTCGTAGG [Duplex 9n T-1n/B-2]
Second: CCTACGACTGGAACAATAAAACCTACGACTGGA / GTAGGTGAGTCTGTTCCAGTCGTAGG [Duplex 9h T-1h/B-2]
The activity (relative mass units) of the first is lower: 14.3 for the first, 22.7 for the second.

First: CCTACGACTGGAACAATAAAACCTACGACTGGA / GTCGTAGGTGAGTCTGTTCCAGTCGTAGG [Duplex 9e T-1e/B-2]
Second: CCTACGACTGGAACAATAAAACCTACGACTGGA / TAGGTGAGTCTGTTCCAGTCGTAGG [Duplex 9i T-1i/B-2]
The activity (relative mass units) of the first is lower: 14 for the first, 23.9 for the second.

Compared with “CCTACGACTGGAACAATAAAACCTACGACTGGA / TGAGTCTGTTCCAGTCGTAGG [Duplex 9m T-1m/B-2]”, “CCTACGACTGGAACAGAAACACCTACGACTGGA / TCCAGTCGTAGGTGAGTCTGTTCCAGTCGTAGG [Duplex 6 T-1/B-6 2 mismatches]” is higher in activity (relative mass units): 13.5 for the first, 45 for the second.

First: CCTACGACTGGAACAGACACACCTACGACTGGA / TCCAGTCGTAGGTGAGTCTGTTCCAGTCGTAGG [Duplex 4 T-1/B-4 1 mismatch]
Second: CCTACGACTGGAACAGATTCACCTACGACTGGA / TCCAGTCGTAGGTGAGTCTGTTCCAGTCGTAGG [Duplex 3 T-1/B-3 1 mismatch]
The activity (relative mass units) of the first is lower: 61.5 for the first, 66.7 for the second.

First: CCTACGACTGGAACAGTAACACCTACGACTGGA / AGGTGAGTCTGTTCCAGTCGTAGG [Duplex 8j T-1j/B-7]
Second: CCTACGACTGGAACAGTAACACCTACGACTGGA / AGTCGTAGGTGAGTCTGTTCCAGTCGTAGG [Duplex 8d T-1d/B-7]
The activity (relative mass units) of the first is lower: 18.3 for the first, 29.2 for the second.

Compared with “CCTACGACTGGAACAGTAACACCTACGACTGGA / CAGTCGTAGGTGAGTCTGTTCCAGTCGTAGG [Duplex 8c T-1c/B-7]”, “CCTACGACTGGAACAGTAACACCTACGACTGGA / CCAGTCGTAGGTGAGTCTGTTCCAGTCGTAGG [Duplex 8b T-1b/B-7]” is higher in activity (relative mass units): 11.5 for the first, 28.3 for the second.

Compared with “CCTACGACTGGAACAGTAACACCTACGACTGGA / CGTAGGTGAGTCTGTTCCAGTCGTAGG [Duplex 8g T-1g/B-7]”, “CCTACGACTGGAACAGTAACACCTACGACTGGA / GAGTCTGTTCCAGTCGTAGG [Duplex 8n T-1n/B-7]” is lower in activity (relative mass units): 20.8 for the first, 12.5 for the second.

First: CCTACGACTGGAACAGTAACACCTACGACTGGA / GGTGAGTCTGTTCCAGTCGTAGG [Duplex 8k T-1k/B-7]
Second: CCTACGACTGGAACAGTAACACCTACGACTGGA / GTAGGTGAGTCTGTTCCAGTCGTAGG [Duplex 8h T-1h/B-7]
The activity (relative mass units) of the first is higher: 19.3 for the first, 12.3 for the second.

First: CCTACGACTGGAACAGTAACACCTACGACTGGA / GTCGTAGGTGAGTCTGTTCCAGTCGTAGG [Duplex 8e T-1e/B-7]
Second: CCTACGACTGGAACAGTAACACCTACGACTGGA / GTGAGTCTGTTCCAGTCGTAGG [Duplex 8l T-1l/B-7]
The activity (relative mass units) of the first is lower: 14.6 for the first, 15.6 for the second.

Going from “CCTACGACTGGAACAGTAACACCTACGACTGGA / TAGGTGAGTCTGTTCCAGTCGTAGG [Duplex 8i T-1i/B-7]” to “CCTACGACTGGAACAGTAACACCTACGACTGGA / TCGTAGGTGAGTCTGTTCCAGTCGTAGG [Duplex 8f T-1f/B-7]”, the activity (relative mass units) rises from 14.9 to 17.8.

First: CCTACGACTGGAACAGTAACACCTACGACTGGA / TGAGTCTGTTCCAGTCGTAGG [Duplex 8m T-1m/B-7]
Second: CCTACGACTGGAACAGTCTCACCTACGACTGGA / TCCAGTCGTAGGTGAGTCTGTTCCAGTCGTAGG [Duplex 5 T-1/B-5 1 mismatch]
The activity (relative mass units) of the first is lower: 18.3 for the first, 63 for the second.
